The test addresses soluble LDL receptor from the supernatant of IFN-gamma-treated human WISH cells (antiviral factor) (human) (UniProt P01130). The experiment in a line: immunoaffinity chromatography on agarose-coupled C7; antiviral activity recovered in the pH 11 eluate (el.2 and el.3) relative to the load.
Chain of UniProt P01130 (P01130 25-313 limits assumed): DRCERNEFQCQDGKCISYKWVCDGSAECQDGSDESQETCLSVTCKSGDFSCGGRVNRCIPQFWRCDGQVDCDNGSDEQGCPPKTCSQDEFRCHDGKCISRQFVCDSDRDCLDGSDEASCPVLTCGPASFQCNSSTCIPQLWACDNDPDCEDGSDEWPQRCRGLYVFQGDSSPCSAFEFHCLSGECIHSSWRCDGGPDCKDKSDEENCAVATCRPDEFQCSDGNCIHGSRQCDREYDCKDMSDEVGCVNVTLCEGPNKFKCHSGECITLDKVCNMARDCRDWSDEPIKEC

Turning to “monoclonal antibody C7 (hybridoma C7, ATCC CRL 1691)”, the recovery worked out at 32%.
